{"source": "paper PMC12403594", "about": "“On the self-assembly of αB-crystallin” (Soft Matter, 2025)", "proteins": {"B1": {"name": "Recombinant human αB-crystallin (natural protein)", "chain": "MDIAIHHPWIRRPFFPFHSPSRLFDQFFGEHLLESDLFPTSTSLSPFYLRPPSFLRAPSWFDTGLSEMRLEKDRFSVNLDVKHFSPEELKVKVLGDVIEVHGKHEERQDEHGFISREFHRKYRIPADVDPLTITSSLSSDGVLTVNGPRKQVSGPERTIPITREEKPAVTAAPKK", "notes": "αB-crystallin, human; expressed from a synthetic gene with E. coli-optimized codons in a Pet3a vector; No tag is mentioned; The introduction gives 175 residues for the protein"}}, "key": {"[1]": {"target": "the molecule itself", "experiment": "static light scattering; day 0 (day of thawing and dilution); 10-69 μM αBC; 20 mM sodium phosphate, 0.2 mM EDTA, 0.02% NaN3, pH 8.0; 25 °C; aggregation number from the slope of the excess Rayleigh ratio at q = 0 against concentration"}, "[2]": {"target": "the molecule itself", "experiment": "static light scattering; day 7 after sample preparation; 10-69 μM αBC; 20 mM sodium phosphate, 0.2 mM EDTA, 0.02% NaN3, pH 8.0; 25 °C; aggregation number from the slope of the excess Rayleigh ratio at q = 0 against concentration"}}}
{"protein": "B1", "values": [{"measurement": "stoichiometry N", "setting": "[1]", "result": 24}, {"measurement": "stoichiometry N", "setting": "[2]", "result": 19}]}
